The values that follow come from PMC2837123.

This assay deals with full-length wild type prototype foamy virus (PFV) integrase (prototype foamy virus (PFV)). As to the kind of experiment: crystal structure.

In general, stoichiometry N refers to a count of units in the complex or per binding partner. Turning to “full-length wild type prototype foamy virus (PFV) integrase (enzyme)”, the stoichiometry N amounted to 4.
